Experiments:
[1] = test system: cPPR-NRE (synthetic construct); experiment: EMSA; conditions: dU as printed (AUUGUAUAUA); EMSA: 10 mM HEPES pH 8.0, 1 mM EDTA, 50 mM KCl, 2 mM DTT, 0.1 mg/ml BSA, 0.02% Tween-20, room temperature 30 min, 0.83 uM probe, 0-10 uM protein (Kd values …)
cPPR-Telo1 = biological target: T1, cPPR-Telo1 (synthetic construct, UniProt PDB:5ORQ_1 1-364); experiment: EMSA; EMSA: 10 mM HEPES pH 8.0, 1 mM EDTA, 50 mM KCl, 2 mM DTT, 0.1 mg/ml BSA, 0.02% Tween-20, room temperature 30 min, 0.83 uM probe, 0-10 uM protein (Kd values only in Supplementary Fig. 2 graphic); conditions: protein: recombinant, tags: GST-His (pETM30), label: 5'-fluorescein via hexaethyleneglycol spacer
T1 chain: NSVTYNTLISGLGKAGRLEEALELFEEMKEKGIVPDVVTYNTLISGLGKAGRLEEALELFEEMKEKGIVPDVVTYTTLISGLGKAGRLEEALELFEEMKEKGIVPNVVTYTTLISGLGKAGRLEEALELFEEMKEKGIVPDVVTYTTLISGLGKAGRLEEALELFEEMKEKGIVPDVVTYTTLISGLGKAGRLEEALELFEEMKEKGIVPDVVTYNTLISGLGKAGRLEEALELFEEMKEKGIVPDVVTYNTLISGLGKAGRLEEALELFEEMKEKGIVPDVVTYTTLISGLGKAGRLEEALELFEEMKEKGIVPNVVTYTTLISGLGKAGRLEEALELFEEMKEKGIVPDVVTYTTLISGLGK

cPPR-Telo1 (tag removed) = biological target: T2, cPPR-Telo1 (tag removed) (synthetic construct, UniProt PDB:5ORQ_1 1-364); experiment: X-ray crystallography (1.95 A); pH 4.6, 20 mM CaCl2; EMSA: 10 mM HEPES pH 8.0, 1 mM EDTA, 50 mM KCl, 2 mM DTT, 0.1 mg/ml BSA, 0.02% Tween-20, room temperature 30 min, 0.83 uM probe, 0-10 uM protein (Kd values only in Supplementary Fig. 2 graphic); conditions: protein: recombinant; tags: none (GST-His removed by TEV); single strand
T2 chain: T1 chain

AUUGUAUAUA [NRE ssDNA]
binding signal (fold lower affinity than NRE RNA) [1]: 3

TTAGGGTTAGGGTTAGGG (ssDNA) [Primer a]
binding result (cPPR-Telo1; single strand, cannot form G4): binds

GGTTAGGGTTAGGGTTAGGG (structured_DNA) [Primer GG-a (Telo-ssDNA-GG)]
binding result (cPPR-Telo1; potential intramolecular G4): binds

GGTTAGGGTTAG (ssDNA) [Telo-ssDNA]
binding result (cPPR-Telo1; single strand): binds

TTAGGGTTAG (ssDNA) [cPPR-Telo1 target ssDNA]
binding result (cPPR-Telo1 (tag removed)): binds
